Reference: article PMC8904830, “Differential recognition of canonical NF-κB dimers by Importin α3” (Nature Communications, 2022)
Values belong to the molecule of their own block, whether it stands above or below them.

B1: ΔNLS-p50 (residues 41-351) (domain or fragment, human, UniProt P19838 41-351, looked up)
chain: GPYLQILEQPKQRGFRFRYVCEGPSHGGLPGASSEKNKKSYPQVKICNYVGPAKVIVQLVTNGKNIHLHAHSLVGKHCEDGICTVTAGPKDMVVGFANLGILHVTKKKVFETLEARMTEACIRGYNPGLLVHPDLAYLQAEGGGDRQLGDREKELIRQAALQQTKEMDLSVVRLMFTAFLPDSTGSFTRRLEPVVSDAIYDSKAPNASNLKIVRMDRTAGCVTGGEEIYLLCDKVQKDDIQIRFYEEEENGGVWEGFGDFSPTDVHRQFAIVFKTPKYKDINITKPASVFVQLRRKSDLETSEPKPFLYYP
notes: NF-κB p50, human, residues 41-351, lacking the C-terminal NLS, untagged; also called p50-ΔNLS; source: E. coli BL21 DE3, purified (polyethyleneimine and ammonium sulfate precipitation, HiTrap SP, Superdex 200)
B3: NF-κB p65 (residues 1-306) (domain or fragment, human, UniProt Q04206 1-306, looked up)
chain: MDELFPLIFPAEPAQASGPYVEIIEQPKQRGMRFRYKCEGRSAGSIPGERSTDTTKTHPTIKINGYTGPGTVRISLVTKDPPHRPHPHELVGKDCRDGFYEAELCPDRCIHSFQNLGIQCVKKRDLEQAISQRIQTNNNPFQVPIEEQRGDYDLNAVRLCFQVTVRDPSGRPLRLPPVLSHPIFDNRAPNTAELKICRVNRNSGSCLGGDEIFLLCDKVQKEDIEVYFTGPGWEARGSFSQADVHRQVAIVFRTPPYADPSLQAPVRVSMQLRRPSDRELSEPMEFQYLPDTDDRHRIEEKRKRTY
notes: NF-κB p65 (RelA), human, residues 1-306 (Rel homology region with the C-terminal NLS), untagged; also called RelA; p65 RHR; source: E. coli BL21 DE3, purified (polyethyleneimine and ammonium sulfate precipitation, HiTrap SP, Superdex 200)
B7: NF-κB p50 (residues 1-366) (domain or fragment, human, UniProt P19838 1-366, looked up)
chain: MAEDDPYLGRPEQMFHLDPSLTHTIFNPEVFQPQMALPTDGPYLQILEQPKQRGFRFRYVCEGPSHGGLPGASSEKNKKSYPQVKICNYVGPAKVIVQLVTNGKNIHLHAHSLVGKHCEDGICTVTAGPKDMVVGFANLGILHVTKKKVFETLEARMTEACIRGYNPGLLVHPDLAYLQAEGGGDRQLGDREKELIRQAALQQTKEMDLSVVRLMFTAFLPDSTGSFTRRLEPVVSDAIYDSKAPNASNLKIVRMDRTAGCVTGGEEIYLLCDKVQKDDIQIRFYEEEENGGVWEGFGDFSPTDVHRQFAIVFKTPKYKDINITKPASVFVQLRRKSDLETSEPKPFLYYPEIKDKEEVQRKRQKL
notes: NF-κB p50, human, residues 1-366 (Rel homology region with the C-terminal NLS); also called p50 RHR; source: E. coli BL21 DE3, purified (Glutathione Resin, PreScission cleavage, Superdex 200)

Columns and labels:
[1] = molecular target: ΔDBD-p50/p65 heterodimer (human) (UniProt P19838); assay: SEC; trimeric complex assembled from purified ΔIBB-importin α3 and ΔDBD-p50/p65; peak fraction analysed by SDS-PAGE and native agarose gel
[2] = molecular target: T1, NF-κB p50/p65 heterodimer (human, UniProt P19838 1-366; Q04206 1-306); assay: SEC-SAXS; pre-assembled NF-κB dimer:ΔIBB-importin α3 complexes at 4.5-6.6 mg/ml on Superdex 200 10/300 GL; 20 mM Tris-HCl pH 7.0-7.5, 0.15-0.175 M NaCl, glycerol, 0.5 mM TCEP, 4 °C; mass from volume of correlation
T1 construct: NF-κB p50, human, residues 1-366; NF-κB p65 (RelA), human, residues 1-306, untagged; also called wild-type NF-κB; source: subunits from E. coli BL21 DE3, purified; assembled by incubating p50:p65 at 1:1.5 molar ratio; copies: 1 + 1

[3] = molecular target: NF-κB p65/p65 homodimer (human) (UniProt Q04206); assay: as above
[4] = molecular target: NF-κB p50/p50 homodimer (human) (UniProt P19838); assay: as above
[5] = molecular target: p50/ΔNLS-p65 heterodimer (human) (UniProt P19838); assay: ELISA; NF-κB hetero/homodimers (200 ng) coated on MaxiSorp plates; His-importin α 1000 to 0 nM in PBST, room temperature 1 h; anti-6xHis-HRP; one-site specific binding fit
[6] = molecular target: T1, NF-κB p50/p65 heterodimer; assay: as above
[7] = molecular target: NF-κB p65/p65 homodimer (human) (UniProt Q04206); assay: as above
[8] = molecular target: NF-κB p50/p50 homodimer (human) (UniProt P19838); assay: as above
[9] = molecular target: ΔIBB-importin α3 (tag not told for these experiments) (human) (UniProt O00629); assay: native gel or EMSA; increasing molar excess of pre-assembled p50/p65 added to a fixed 10 μg (~108 pmoles) of ΔIBB-importin α1 or α3; 1.5% agarose gel, 4 °C, 2 h at 50 V, Coomassie
[10] = molecular target: ΔIBB-importin α1 (tag not told for this experiment) (human) (UniProt P52292); assay: as above
[11] = molecular target: the molecule itself; assay: SEC; homodimeric NF-κB complexes concentrated and injected on Superdex 200 16/60 in 20 mM Tris-HCl pH 7.5, 150 mM NaCl, 5 mM β-mercaptoethanol, 2% glycerol
[12] = molecular target: B1; assay: assembly of heterodimers by co-incubation; purified p50 and p65 constructs incubated at 1:1.5 p50:p65 molar ratio, 25 °C 30 min, 37 °C 1 h, centrifuged at 12,000 x g; conditions: both partners purified
[13] = molecular target: B7; assay: as above; conditions: both partners purified
[14] = molecular target: B3; assay: as above; conditions: both partners purified
[15] = molecular target: T1, NF-κB p50/p65 heterodimer; assay: native gel or EMSA; purified IκBα titrated against ~130 pmoles of pre-formed p50/p65 (Fig. 4a lanes 5-10); 1 h at 4 °C; 1.5% agarose gel; conditions: both partners purified

ΔIBB-importin α3 (tag not told for these experiments) (human), sequence (O00629 68-487, stated change not applied): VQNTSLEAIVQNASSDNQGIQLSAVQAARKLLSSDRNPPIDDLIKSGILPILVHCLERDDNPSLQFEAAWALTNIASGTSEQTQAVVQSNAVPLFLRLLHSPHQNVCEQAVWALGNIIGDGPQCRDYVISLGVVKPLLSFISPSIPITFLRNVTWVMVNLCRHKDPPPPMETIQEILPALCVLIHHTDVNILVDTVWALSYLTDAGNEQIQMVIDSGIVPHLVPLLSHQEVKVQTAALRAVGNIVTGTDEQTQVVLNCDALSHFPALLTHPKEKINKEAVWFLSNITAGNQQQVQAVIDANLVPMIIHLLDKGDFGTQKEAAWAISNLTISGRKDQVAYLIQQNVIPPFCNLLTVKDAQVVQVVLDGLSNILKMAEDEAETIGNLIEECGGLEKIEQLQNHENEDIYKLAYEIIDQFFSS

- stoichiometry N [1]: 1
- stoichiometry N [2]: 1
- stoichiometry N [3]: 1
- stoichiometry N [4]: 2
Molecule: ΔIBB-importin α3 (tag not told for these experiments) (from UniProt O00629 68-487) (domain or fragment)

- Kd [5]: 59.6 nM
- Kd [6]: 45.8 nM
- Kd [7]: 35.2 nM
- Kd [8]: 15.4 nM
Molecule: His-ΔIBB-importin α3 (from UniProt O00629 68-487) (domain or fragment)

- stoichiometry N [9]: 1
- stoichiometry N [10]: 1
Molecule: NF-κB p50/p65 heterodimer (from UniProt P19838 1-366; Q04206 1-306) (complex)

Molecule: B1
- binding result [11]: binds

- binding result [12]: binds
- binding result [13]: binds
B2: ΔNLS-p65 (residues 1-290) (domain or fragment, human, UniProt Q04206 1-290, looked up)
chain: MDELFPLIFPAEPAQASGPYVEIIEQPKQRGMRFRYKCEGRSAGSIPGERSTDTTKTHPTIKINGYTGPGTVRISLVTKDPPHRPHPHELVGKDCRDGFYEAELCPDRCIHSFQNLGIQCVKKRDLEQAISQRIQTNNNPFQVPIEEQRGDYDLNAVRLCFQVTVRDPSGRPLRLPPVLSHPIFDNRAPNTAELKICRVNRNSGSCLGGDEIFLLCDKVQKEDIEVYFTGPGWEARGSFSQADVHRQVAIVFRTPPYADPSLQAPVRVSMQLRRPSDRELSEPMEFQYLP
notes: NF-κB p65 (RelA), human, residues 1-290 (stop codon at position D291), lacking the C-terminal NLS, untagged; source: E. coli BL21 DE3, purified (polyethyleneimine and ammonium sulfate precipitation, HiTrap SP, Superdex 200)
- binding result [11]: binds

Molecule: B3
- binding result [12]: binds
- binding result [13]: binds
- binding result [11]: binds

- binding result [14]: binds
B4: ΔDBD-p50 (residues 243-366) (domain or fragment, human, UniProt P19838 243-366, looked up)
chain: KAPNASNLKIVRMDRTAGCVTGGEEIYLLCDKVQKDDIQIRFYEEEENGGVWEGFGDFSPTDVHRQFAIVFKTPKYKDINITKPASVFVQLRRKSDLETSEPKPFLYYPEIKDKEEVQRKRQKL
notes: also called p50 dimerization domain; source: E. coli BL21 DE3, purified (Glutathione Resin, PreScission cleavage, Superdex 200)
- binding result [11]: binds

- stoichiometry N [15]: 1
B5: IκBα (residues 67-287) (domain or fragment, UniProt P25963 67-287, looked up)
chain: KQQLTEDGDSFLHLAIIHEEKALTMEVIRQVKGDLAFLNFQNNLQQTPLHLAVITNQPEIAEALLGAGCDPELRDFRGNTPLHLACEQGCLASVGVLTQSCTTPHLHSILKATNYNGHTCLHLASIHGYLGIVELLVSLGADVNAQEPCNGRTALHLAVDLQNPDLVSLLLKCGADVNRVTYQGYSPYQLTWGRPSTRIQQQLGQLTLENLQMLPESEDEE
notes: IκBα, residues 67-287, untagged; source: recombinant, expressed and purified as previously described (pET-11a)

B6: ΔDBD-p65 (residues 191-316) (domain or fragment, human, UniProt Q04206 191-316, looked up)
chain: TAELKICRVNRNSGSCLGGDEIFLLCDKVQKEDIEVYFTGPGWEARGSFSQADVHRQVAIVFRTPPYADPSLQAPVRVSMQLRRPSDRELSEPMEFQYLPDTDDRHRIEEKRKRTYETFKSIMKKS
notes: also called p65 dimerization domain; source: E. coli BL21 DE3, purified (Glutathione Resin, PreScission cleavage, Superdex 200)
- binding result [11]: binds

Molecule: B7
- binding result [11]: binds
